According to the supplement of paper PMC10126150:
± gives the standard deviation of the averaged measurements.

Test system: ATP
Experiment: switch fluorescence ratio, 500 uM ATP over buffer (Cy3 cluster intensity, sum of 5 cycles each) (fold (ratio)); higher = stronger signal-on switching upon ATP binding; sequences stand for … in TCGTCGGCAGCGTCAGATGTGTATAAGAGACAGTTTTTTTTTTTTTTTTTTTTTTTTT…TC
Conditions: aptamer strand: ATP DNA aptamer (quencher-CACCTGGGGGAGTATTGCGGAGGAAGG + anchor), 100 nM annealed; ATP concentration: 500 uM
How it was run: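 The fluorescence ratio divides summed target-cycle Cy3 intensity by summed buffer-cycle Cy3 intensity for each cluster and is averaged per switch-domain sequence. Cy3-labelled switching-strand clusters on a modified Illumina MiSeq flow-cell were annealed to 100 nM quencher-labelled ATP aptamer, then imaged in selection buffer and again after 15 min with 500 uM ATP at 22 °C. Five such cycles were run, with NaOH stripping and re-annealing between them, and clusters outside 100-1000 RFU were excluded.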
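Further: ATP exposure 15 min at 22 °C before imaging.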

Sequence | switch fluorescence ratio
CAGTGAGGGA | 0.9804 ± 0.004
CAGTGAGGGG | 0.984 ± 0.029
CAGTGATCTT | 0.97521 ± 0.00076
CAGTGCGCGC | 1.01 ± 0.026
CAGTGGAGGA | 1 ± 0.024
CAGTGGGGGA | 0.993 ± 0.022
CAGTGGGGGT | 1 ± 0.03
CAGTGGGTCT | 0.992 ± 0.017
CAGTGTCCGC | 1.07 ± 0.018
CAGTTAGCAG | 1.06 ± 0.025
CAGTTATTCG | 0.977 ± 0.014
CAGTTATTGG | 0.978 ± 0.038
CAGTTCCCGC | 1.16 ± 0.055
CAGTTCGGGG | 0.9729 ± 0.0094
CAGTTCTCTA | 0.981 ± 0.0068
CAGTTGAGGT | 0.998 ± 0.013
CAGTTGGGGG | 1 ± 0.031
CAGTTTACGT | 0.983 ± 0.023
CAGTTTATGA | 0.971 ± 0.039
CAGTTTGCTG | 0.979 ± 0.018
CAGTTTGGGT | 1.01 ± 0.081
CATAAGGCAA | 1.282 ± 0.0088
CATAAGGTTT | 0.971 ± 0.04
CATAATAATC | 0.98 ± 0.026
CATAATGAAG | 1.01 ± 0.014

Sequence | switch fluorescence ratio
CATAATGCGG | 1.005 ± 0.0012
CATAATTAAT | 0.955 ± 0.023
CATACTCTTC | 1 ± 0.065
CATAGCATCC | 1.48 ± 0.2
CATAGCTAGG | 1.004 ± 0.0075
CATAGCTGTG | 1.01 ± 0.026
CATAGGAGGC | 1 ± 0.031
CATAGGCTGG | 0.985 ± 0.016
CATAGGGACG | 0.989 ± 0.083
CATAGGGCCA | 1 ± 0.012
CATAGGGGAA | 1.01 ± 0.011
CATAGGTCAT | 1.03 ± 0.058
CATAGTATGT | 0.973 ± 0.067
CATAGTATTA | 0.958 ± 0.04
CATAGTCCTC | 0.964 ± 0.041
CATAGTTACG | 0.994 ± 0.047
CATAGTTCGT | 0.988 ± 0.016
CATATAAGTA | 0.9809 ± 0.0025
CATATGGGGT | 1 ± 0.038
CATATGTCTG | 0.994 ± 0.015
CATATTGGGG | 0.963 ± 0.022
CATATTTAGG | 0.949 ± 0.028
CATCAAGGTA | 1.04 ± 0.025
CATCAGGGCT | 1.06 ± 0.051
CATCATGTCT | 1.01 ± 0.03

Sequence | switch fluorescence ratio
CATCCCTCAA | 1.86 ± 0.72
CATCCGTCCG | 1.353 ± 0.0037
CATCGAGTTC | 1.05 ± 0.025
CATCGCATTT | 2.32 ± 0.91
CATCGGGGTT | 1.01 ± 0.002
CATCGTTGGT | 0.999 ± 0.0029
CATCTAGCAC | 2.63 ± 0.42
CATCTGCGTT | 1.58 ± 0.11
CATGAATCTA | 0.98017 ± 0.00042
CATGAATTCA | 1.04 ± 0.033
CATGAATTGT | 0.974 ± 0.019
CATGAGTTGT | 1 ± 0.025
CATGATTCA | 0.998 ± 0.041
CATGATTTAT | 1 ± 0.054
CATGCATGTT | 1.01 ± 0.029
CATGCCAGAA | 0.981 ± 0.015
CATGCCTTGT | 1.009 ± 0.0059
CATGCGGATG | 1.001 ± 0.0056
CATGCGGCCG | 0.992 ± 0.02
CATGCTTCAT | 0.988 ± 0.017
CATGGAAGGG | 0.9699 ± 0.0068
CATGGAATAG | 1.07 ± 0.011
CATGGAGAGG | 1.02 ± 0.0086
CATGGATTAA | 1 ± 0.011
CATGGCAACG | 0.993 ± 0.038

Sequence | switch fluorescence ratio
CATGGGAAAT | 1.008 ± 0.005
CATGGGCAGC | 0.997 ± 0.016
CATGGGCCGT | 1.02 ± 0.035
CATGGGGCTA | 1.02 ± 0.031
CATGGGGTAA | 0.99 ± 0.014
CATGGGGTGG | 0.9671 ± 0.0014
CATGGGGTGT | 1.01 ± 0.013
CATGGGTGGG | 0.994 ± 0.028
CATGGTATTT | 0.9797 ± 0.0095
CATGGTTTTC | 0.962 ± 0.04
CATGTAAGGA | 0.985 ± 0.015
CATGTAAGTT | 0.986 ± 0.018
CATGTAGCGT | 1 ± 0.027
CATGTATAGG | 0.987 ± 0.032
CATGTATGT | 1.07 ± 0.03
CATGTCAAGA | 1.01 ± 0.036
CATGTGAAGC | 1.014 ± 0.0072
CATGTGAAGG | 0.966 ± 0.037
CATGTGGACG | 1.1 ± 0.02
CATGTTAGGG | 1.01 ± 0.033
CATGTTGAGC | 0.9959 ± 0.0081
CATGTTTTGT | 1.02 ± 0.017
CATGTTTTTC | 0.982 ± 0.033
CATTAAATTT | 1.02 ± 0.011
CATTAAGGAG | 1.06 ± 0.092

Sequence | switch fluorescence ratio
CATTACAGCC | 1.09 ± 0.028
CATTACTTTT | 1.01 ± 0.014
CATTAGCGCA | 1.047 ± 0.0084
CATTAGTGGG | 0.988 ± 0.011
CATTATGTGA | 0.987 ± 0.051
CATTATTATG | 1.03 ± 0.036
CATTATTTCA | 0.997 ± 0.04
CATTCGTCGG | 1.044 ± 0.0031
CATTGAATAC | 1.36 ± 0.061
CATTGAGTGC | 1.034 ± 0.0017
CATTGATATG | 0.9912 ± 0.0091
CATTGCGAGG | 1.02 ± 0.039
CATTGCTTGG | 1.039 ± 0.0012
CATTGGAGGA | 1.018 ± 0.0011
CATTGGAGTC | 0.998 ± 0.043
CATTGGCGTA | 1.02 ± 0.023
CATTGGTGTG | 0.985 ± 0.047
CATTGTGGTA | 1.014 ± 0.0033
CATTGTTGTT | 1.01 ± 0.0098
CATTGTTTGA | 1.03 ± 0.021
CATTTACACT | 1.05 ± 0.059
CATTTAGGAT | 0.985 ± 0.018
CATTTAGGCT | 0.9997 ± 0.0058
CATTTCACGC | 1.0996 ± 0.00041
CATTTCGAAC | 1.02 ± 0.027

Sequence | switch fluorescence ratio
CATTTGGCGG | 1 ± 0.013
CATTTGGGCC | 0.999 ± 0.017
CATTTGTCCG | 1.01 ± 0.071
CATTTGTTCT | 1 ± 0.049
CATTTTATTT | 0.996 ± 0.032
CATTTTGATG | 0.966 ± 0.011
CATTTTGTAT | 0.998 ± 0.013
CATTTTTGGC | 1.03 ± 0.027
CATTTTTTGG | 0.998 ± 0.019
CATTTTTTGT | 1.027 ± 0.0052
CATTTTTTTG | 1 ± 0.017
CCAAAGGGAT | 1.28 ± 0.38
CCAAAGGGGA | 1.15 ± 0.27
CCAAAGGTTT | 1.13 ± 0.22
CCAAATGTCT | 1.016 ± 0.0049
CCAAATTTAA | 1.03 ± 0.01
CCAACGGGGA | 1.1 ± 0.085
CCAACGGTGC | 2.24 ± 0.095
CCAACTTGGA | 0.9849 ± 0.003
CCAAGCGCCC | 1.63 ± 0.23
CCAAGCGCCG | 1.12 ± 0.13
CCAAGGACAC | 1.1498 ± 0.001
CCAAGGAGGG | 0.999 ± 0.017
CCAAGGAGTC | 0.992 ± 0.024
CCAAGGATAA | 1.047 ± 7.2e-05

Sequence | switch fluorescence ratio
CCAAGGCTTA | 1.06 ± 0.063
CCAAGGGTTT | 0.993 ± 0.06
CCAATAAATT | 0.974 ± 0.018
CCAATAGACG | 1.01 ± 0.03
CCAATCCAGT | 1.01 ± 0.013
CCAATGGGGG | 0.982 ± 0.04
CCAATTGTGG | 0.9977 ± 0.0056
CCAATTTTAA | 0.985 ± 0.029
CCACAGGGTG | 4.53 ± 1.5
CCACAGTAAT | 4.75 ± 0.34
CCACCGGGCC | 1.36 ± 0.076
CCACCTTACG | 1.54 ± 0.077
CCACGCGGCA | 1.19 ± 0.091
CCACGGACAA | 1.645 ± 0.0082
CCACGGGTTA | 1.045 ± 0.005
CCACGGTTAG | 0.981 ± 0.023
CCACGTTGAA | 1.05 ± 0.033
CCACTAGTCG | 1.02 ± 0.016
CCACTGTGGT | 0.978 ± 0.013
CCAGACACAG | 0.9849 ± 0.002
CCAGACTTTT | 0.999 ± 0.043
CCAGAGACCG | 1.04 ± 0.012
CCAGAGAGCC | 1.04 ± 0.028
CCAGAGGGAT | 0.992 ± 0.024
CCAGATGGCA | 1.02 ± 0.082

Sequence | switch fluorescence ratio
CCAGATTTTA | 0.992 ± 0.015
CCAGCAGGGA | 1.37 ± 0.49
CCAGCCAATA | 3.36 ± 0.12
CCAGCGGGGC | 1.05 ± 0.019
CCAGGAACTC | 1.02 ± 0.025
CCAGGACTGC | 0.972 ± 0.036
CCAGGGCAGC | 1.06 ± 0.079
CCAGGGCGTG | 1.02 ± 0.069
CCAGGGGGAA | 1.09 ± 0.12
CCAGGGGGGG | 1.24 ± 0.32
CCAGGGGGTT | 1.51 ± 0.59
CCAGGTAGG | 1.24 ± 0.068
CCAGGTTTCA | 1.03 ± 0.046
CCAGGTTTGT | 1.17 ± 0.016
CCAGGTTTTG | 1.08 ± 0.031
CCAGTAAAAT | 1.01 ± 0.019
CCAGTAAATT | 0.993 ± 0.046
CCAGTAATGT | 1.04 ± 0.041
CCAGTACTGA | 1.021 ± 0.0094
CCAGTCATTT | 1.03 ± 0.027
CCAGTGGGGC | 1.01 ± 0.072
CCAGTGTGTG | 1.09 ± 0.062
CCAGTTATGG | 0.999 ± 0.068
CCAGTTTGCA | 1.02 ± 0.017
CCATAAATAG | 1.169 ± 0.0077
